# Laboratory results: paper doi:10.1101/2020.05.18.103002 (bioRxiv, 2020)
# Where no end group is shown, it is not given here.
# Legend:
# Experiment in all cases: fluorescence polarisation
# [1] = target: FITC-conjugated CD3ε peptide (…)
# [2] = target: FITC-conjugated PAK1 peptide (…)
# [3] = target: NCK2 full length recombinant protein (WT, tag-free) (mouse, UniProt O55033 1-380)
Molecule,fold decrease of binding against WT NCK2 [1],binding result [3],further results
"NCK2 3|2|1 full length recombinant protein (SH3-shuffled, tag-free) (from UniProt O55033)",2 fold,–,–
"NCK2 2|3|1 full length recombinant protein (SH3-shuffled, tag-free) (from UniProt O55033)",2 fold,–,–
"NCK2 3|1|2 full length recombinant protein (SH3-shuffled, tag-free) (from UniProt O55033)",–,–,fold decrease of binding against WT NCK2 [2]: 2 fold
"DIQDKPPAPPMRNTST (also: FITC-conjugated, site not given here) [FITC-conjugated PAK1 peptide (DIQDKPPAPPMRNTST)]",–,binds,–
"RGQNKERPPPVPNPDY (also: FITC-conjugated, site not given here) [FITC-conjugated CD3ε peptide (RGQNKERPPPVPNPDY)]",–,binds,–
